Measured values: US10456465B2, “Compositions, kits, and methods for the diagnosis prognosis, monitoring, treatment and modulation of post-transplant lymphoproliferative disorders and hypoxia associated angiogenesis disorders using galectin-1” (Dana-Farber Cancer Institute, Inc., priority 2009, dated 2019)

Key:
HUVEC = assay: ELISA of VEGF secretion by HUVEC; assay type: cell-based, human; details: HUVEC incubated with Gal1
Procedure: Mouse IFN-γ and IL-10 ELISA sets were from BD Biosciences and mouse IL-17 kit was from R&D. Human soluble VEGF was assessed by ELISA (DY293B; R&D). Soluble Gal1 was determined using an in-house ELISA. Briefly, high binding 96-well microplates (Corning Costar) were coated with capture antibody (2 μg/ml purified rabbit anti-Gal1 polyclonal IgG) in 0.1 M sodium carbonate pH 9.5. After incubation for 18 hours at 4° C., wells were rinsed three times with wash buffer (0.05% Tween-20 in PBS) and incubated for 1 h at RT with blocking solution (2% BSA in PBS). Samples and standards (100 μl) were diluted in 1% BSA and incubated for 18 hours at 4° C. Plates were then washed and incubated with 100 ng/ml biotinylated detection antibody (purified rabbit anti-Gal1 polyclonal IgG) for 1 hour at RT. Plates were rinsed three times before adding horseradish peroxidase-labeled streptavidin (0.33 μg/ml; Sigma) for 30 min at RT. After washing, 100 μl of TMB solution (0.1 mg/ml tetramethylbenzidine and 0.06% H2O2 in citrate-phosphate buffer pH 5) was added to the plates. The reaction was stopped by adding 4N H2SO4. Optical densities were determined at 450 nm in a Multiskan MS microplate reader (Thermo Electron Corporation). A standard curve ranging from 2.5 to 160 ng/ml recombinant Gal1 was run in parallel.

endogenous Gal1 = biological target: T1, endogenous Gal1 (Homo sapiens, UniProt P09382); assay: Reactivity with endogenous Gal1 from Hodgkin lymphoma cell line (immunoblot); assay type: binding; details: Hodgkin lymphoma cell line (L428); immunoblots
T1 construct: endogenous Gal1 from HL cell lines; endogenous in cells; host or cells: Hodgkin lymphoma cell line (L428)
Source text: Anti-human Gal1 mAbs were obtained by immunizing B6-Cg-Tg (BCL2)22Wehi-J mice (Jackson Labs, Bar Harbor, Me.) with recombinant human glutathione-s-transferase (GST)-Gal1, generating anti-Gal1 hybridomas with standard methods and purifying the Gal1 monoclonal antibody and class-matched IgG2bλ, control by affinity chromatography. […] A previously described anti-Gal1 polyclonal antibody (Juszczynski et al. (2007) Proc Natl Acad Sci USA 104:13134-9) was used as a positive control in all assays.
Expression of Gal1 protein in HL, LCL and DLBCL cell lines was determined by Western blot (WB) using the αGal1 monoclonal antibody (8F4F8G7) or the previously described polyclonal antiserum (Juszczynski et al. (2007) Proc Natl Acad Sci USA 104:13134-9). Knock-down of LMP2A was confirmed by WB using anαLMP2a antibody (Abcam, Cambridge, Mass.). Activity of the AP-1 components, cJun and JunB, in the HL cell line L428 and the LCLs RIC and NOR were interrogated by WB using αphospho(Ser63)-cJun (Cell Signaling Technology), αcJun (Cell Signaling Technology, Danvers, Mass.), αphospho(Ser259)-JunB (Santa Cruz Biotechnology, Inc. Santa Cruz, Calif.) and αJunB (Cell Signaling Technology). WBs were normalized using αβ-actin antibody (Sigma Aldrich, St. Louis, Mo.) to determine β-actin expression as a loading control.

Gal3 = biological target: T2, Gal3 (Homo sapiens, UniProt P17931); assay: Binding of 488-Gal3 to HUVEC; details: 488-Gal3 20 μg/ml, mAb 0.5 μM
T2 construct: made in house
Procedure: For glycophenotyping, ECs were incubated with biotinylated L-PHA, LEL, SNA, MAL II, PNA and HPA (all from Vector). Recombinant Gal1 was purified as described in Ilarregui et al. (2009) Nat Immunol 10, 981-991. For binding assays, ECs were incubated for 1 h at 4° C. with dyLight 488-labeled galectins in the absence or presence of lactose, sucrose, anti-Gal1 or isotype control mAb or following transfection with GnT5, GCNT1 or scrambled siRNA. Cells were analyzed on a FACSAria (BD Biosciences). For segregation, ECs were treated with Gal1 for 1 h, fixed and incubated for 1 h with anti-human VEGFR2 antibody (55B11; Cell Signaling) as described in Ilarregui et al. (2009) Nat Immunol 10, 981-991. Cells were analyzed on a Nikon laser confocal microscope (Eclipse E800).
DyLight 488-conjugated Gal1 (488-Gal1) was obtained using DyLight labeling kit (Thermo Scientific). Inhibitors of Jak2-STAT3 (AG490; 5 μM), Jnk-SAP (SP600125; 20 μM), p38 (SB202190; 10 μM), HIF-1α (3 μM) and O-glycosylation (benzyl-α-Ga1NAc; 2 mM) were from Calbiochem. Inhibitors of Erk1/2 (U0126; 5 μM), PI(3)K-Akt (Ly294002; 2 μM) and NF-κB (BAY 11-7082; 1 μM), ROS (N-acetyl-cysteine; NAC), N-glycosylation (swainsonine; 3 μM), lactose or sucrose (30 mM) were from Sigma. PNGase F (25 U/μg protein) was from New England Biolabs. […]

T1 sequence (P09382 whole entry): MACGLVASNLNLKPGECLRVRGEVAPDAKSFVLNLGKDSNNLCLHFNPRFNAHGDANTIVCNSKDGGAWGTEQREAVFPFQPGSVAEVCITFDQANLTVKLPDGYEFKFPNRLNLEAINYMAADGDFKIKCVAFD
T2 sequence (P17931 whole entry, species assumed): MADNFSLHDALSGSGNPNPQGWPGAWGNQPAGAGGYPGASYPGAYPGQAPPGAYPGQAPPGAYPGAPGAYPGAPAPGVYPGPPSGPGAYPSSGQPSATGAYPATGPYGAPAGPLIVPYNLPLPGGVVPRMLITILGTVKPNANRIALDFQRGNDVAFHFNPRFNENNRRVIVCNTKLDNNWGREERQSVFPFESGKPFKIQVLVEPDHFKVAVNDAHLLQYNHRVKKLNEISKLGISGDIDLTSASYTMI

For rGal1: recombinant human galectin-1, the VEGF secretion (HUVEC) was “lack of effects”.

B1: anti-Gal1 monoclonal antibody 8F4F8G7 (antibody, V domains shown)
VH: EVQLQQSVAEFVRPGASVRLSCTASGFNIKNTYIHWVRQRPEQGLEWIGKIDPANGNTKYVPEFQGKATMTADTSSNTVYLHLSSLTSEDTAIYYCVDGYYGWYFAVWGTGTTVTVSS
VL: QAVVTQESALTTSPGETVTLTCRSSTGAVTTSNYANWVQEKPDHLFTGLIGATNNRAPGVPARFSGSLIGDKAVLTITGAQTEDEAIYFCALWYRNHFIFGSGTKVTVL
notes: Murine hybridoma mAb (deposit PTA-10535), lambda light chain; also called 14-19 8F4-F8-G7; clone 8F4.8F.67
In the case of B1, the “reactivity with endogenous Gal1” value (endogenous Gal1) is reported as “specifically detected” and the “effect on binding of Gal3 to the EC surface” value (Gal3) is reported as “did not interfere”.
